From patent US20110091971A1, “Differentiation of Pluripotent Stem Cells” (priority 2008, published 2011)
Numbering of substitutions follows the chain as printed.

B1: ACTN4: activin A variant peptide, SEQ ID 5 (protein)
chain: GLECDGKVNLCCKKQLFVSFKDIGWNDWIIAPSGYHANHCSGLCPSHIAGTSGSSLSFHSTVINHYRMRGHSPFSDMGACCVPTKLRPMSMLYYDDGQNIIKKDIQNMIVEECGCS
B2: ACTN48: activin A variant peptide, SEQ ID 49 (protein)
chain: B1 chain with L16N, H39E, S75A, D76N, V82I

Tested on: Human Embryonic Stem Cells (H1 hESC line)
Assay: High content analysis of cell number, PDX1 and CDX2 protein expression at conclusion of third step of differentiation (Example 12)
Type: cell-based
Conditions: end of third step; peptide given during first step; compared with commercial activin A or ACTN1
Description: At the conclusion of the first step of the differentiation protocol, replicate sets of parallel wells for each treatment group were subjected to further step-wise differentiation. It is important to note that after the first three days, all wells undergoing continuing culture and differentiation received the same treatment. The protocol for this continuing differentiation is described below.
During the second step of differentiation, cultures were grown for two days in DMEM:F12 medium (Invitrogen; Cat #11330-032) supplemented with 2% Albumin Bovine Fraction V, Fatty Acid Free (FAF BSA) (MP Biomedicals, Inc; Cat #152401), 50 ng/ml FGF7 (PeproTech; Cat #100-19), and 250 nM cyclopamine (Calbiochem; Cat #239804). Medium in each well was aspirated and replaced with a fresh aliquot (0.5 ml) on both days.
Step 3 of the differentiation protocol was carried out over four days. Cells were fed daily by aspirating medium from each well and replacing with a fresh aliquot (0.5 ml) of DMEM-high glucose (Invitrogen; Cat #10569) supplemented with 1% B27 (Invitrogen; Cat #17504-044), 50 ng/ml FGF7, 100 ng/ml Noggin (R&D Systems; Cat #3344-NG), 250 nM KAAD-cyclopamine (Calbiochem; Cat #239804), and 2 μM all-trans retinoic acid (RA) (Sigma-Aldrich; Cat #R2625). At the conclusion of the third step of differentiation, cells from some wells were harvested for analysis by RT-PCR to measure markers of differentiation. Other culture wells were subjected to high content image analysis for protein expression levels of PDX1, a transcription factor correlated with pancreatic endoderm differentiation, and CDX2, a transcription factor associated with intestinal endoderm.
High Content Analysis: At the conclusion of three days of culture, assay plates were washed once with PBS (Invitrogen; Cat #14190), fixed with 4% paraformaldehyde (Alexis Biochemical; Cat #ALX-350-011) at room temperature for 20 minutes, then washed three times with PBS and permeabilized with 0.5% Triton X-100 (Sigma; Cat #T8760-2) for 20 minutes at room temperature. Cells were washed again three times with PBS and blocked with 4% chicken serum (Invitrogen; Cat #16110082) in PBS for 30 minutes at room temperature. Primary antibody (goat anti-human SOX17; R&D Systems; Cat #AF1924) was diluted 1:100 in 4% chicken serum and added to each well for two hours at room temperature. […]
Imaging was performed using an IN Cell Analyzer 1000 (GE Healthcare) utilizing the 51008bs dichroic for cells stained with Hoechst 33342 and Alexa Fluor 488. […] Segmentation for the nuclei was determined based on gray-scale levels (baseline range 100-300) and nuclear size. Averages and standard deviations were calculated for each replicate data set. […]

Molecule | cell numbers | protein expression of PDX1 and CDX2
B1 | equivalent cell numbers | equivalent protein expression
B2 | equivalent cell numbers | equivalent protein expression
